Data published in patent US20140087995A1 (published 2014).
Numbered stars: 1 amine (or outer) side, 2 acyl side, 3 side chain; on linkers, the order of the positions; unused ones are H or OH. Bridge positions count the residues as written; N and C are the ends. Side chains are listed from the residue outwards. Ends that are not written are not given here. * marks the point of attachment. C20 diacid = O=C(O)CCCCCCCCCCCCCCCCCCC(=O)*; C18 diacid = O=C(O)CCCCCCCCCCCCCCCCC(=O)*; C16 diacid = O=C(O)CCCCCCCCCCCCCCC(=O)*; γGlu = O=C(O)[C@H](CCC(=O)[*:2])N[*:1]; C14 diacid = O=C(O)CCCCCCCCCCCCC(=O)*

T1: rat amylin receptor (rat calcitonin receptor + rat RAMP 3) (rat, UniProt P32214 25-516; Q9JJ73 23-147)
T1 construct: whole, on cells; Membranes of transiently transfected BHK tk'ts 13 cells; also called rAmylin-R; rat amylin 3(a) receptor
T1 sequence (looked up) 1: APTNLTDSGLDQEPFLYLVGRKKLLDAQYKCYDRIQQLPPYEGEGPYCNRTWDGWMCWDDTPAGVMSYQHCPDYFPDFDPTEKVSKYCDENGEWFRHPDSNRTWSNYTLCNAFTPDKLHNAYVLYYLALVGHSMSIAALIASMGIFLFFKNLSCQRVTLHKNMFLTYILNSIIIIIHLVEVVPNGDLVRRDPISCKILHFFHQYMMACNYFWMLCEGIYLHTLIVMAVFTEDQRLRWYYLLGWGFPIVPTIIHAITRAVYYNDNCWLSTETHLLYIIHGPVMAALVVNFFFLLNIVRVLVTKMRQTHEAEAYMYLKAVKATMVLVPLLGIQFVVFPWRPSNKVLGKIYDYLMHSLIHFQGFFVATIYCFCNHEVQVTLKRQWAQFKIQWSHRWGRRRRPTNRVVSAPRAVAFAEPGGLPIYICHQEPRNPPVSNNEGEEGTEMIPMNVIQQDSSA
T1 sequence (looked up) 2: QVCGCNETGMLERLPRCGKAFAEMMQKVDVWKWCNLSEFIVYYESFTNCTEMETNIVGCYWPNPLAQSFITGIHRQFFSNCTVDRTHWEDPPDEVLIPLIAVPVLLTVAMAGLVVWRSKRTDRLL

T2: rat calcitonin receptor (rat, UniProt P32214 25-516)
T2 construct: whole, on cells; Membranes of transiently transfected BHK tk'ts 13 cells; also called rCTR; rat calcitonin (a) receptor
T2 sequence (looked up): T1 sequence (looked up) 1

T3: human calcitonin receptor (human, UniProt P30988 25-474)
T3 construct: whole, on cells; Membranes of stably transfected cells; also called hCTR; hCT
T3 sequence (looked up): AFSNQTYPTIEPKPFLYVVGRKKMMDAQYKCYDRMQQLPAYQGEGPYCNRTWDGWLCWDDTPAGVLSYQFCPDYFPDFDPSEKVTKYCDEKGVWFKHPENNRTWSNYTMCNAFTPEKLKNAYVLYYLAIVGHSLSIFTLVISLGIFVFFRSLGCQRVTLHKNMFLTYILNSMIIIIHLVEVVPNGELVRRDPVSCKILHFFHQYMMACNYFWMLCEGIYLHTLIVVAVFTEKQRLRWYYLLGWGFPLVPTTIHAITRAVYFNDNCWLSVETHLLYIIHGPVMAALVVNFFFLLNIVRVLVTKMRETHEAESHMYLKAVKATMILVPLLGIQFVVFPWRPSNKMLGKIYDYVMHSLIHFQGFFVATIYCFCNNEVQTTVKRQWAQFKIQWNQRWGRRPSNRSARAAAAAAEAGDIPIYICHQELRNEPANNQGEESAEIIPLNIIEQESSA

B1: N^ε1-[(4S)-4-carboxy-4-(13-carboxytridecanoylamino)butanoyl]-[Arg17,Pro21,Pro27,His34]-h-amylin (peptide)
peptide: K([γGlu-C14 diacid])CNTATCATQRLANFLRHSSPNFGAIPSSTNVGHNTY-NH2
modifications: disulfide 2-7; N-terminus assumed
SMILES: CC[C@H](C)[C@H](NC(=O)[C@H](C)NC(=O)CNC(=O)[C@H](Cc1ccccc1)NC(=O)[C@H](CC(N)=O)NC(=O)[C@@H]1CCCN1C(=O)[C@H](CO)NC(=O)[C@H](CO)NC(=O)[C@H](Cc1c[nH]cn1)NC(=O)[C@H](CCCNC(=N)N)NC(=O)[C@H](CC(C)C)NC(=O)[C@H](Cc1ccccc1)NC(=O)[C@H](CC(N)=O)NC(=O)[C@H](C)NC(=O)[C@H](CC(C)C)NC(=O)[C@H](CCCNC(=N)N)NC(=O)[C@H](CCC(N)=O)NC(=O)[C@@H](NC(=O)[C@H](C)NC(=O)[C@@H]1CSSC[C@H](NC(=O)[C@@H](N)CCCCNC(=O)CC[C@H](NC(=O)CCCCCCCCCCCCC(=O)O)C(=O)O)C(=O)N[C@@H](CC(N)=O)C(=O)N[C@@H]([C@@H](C)O)C(=O)N[C@@H](C)C(=O)N[C@@H]([C@@H](C)O)C(=O)N1)[C@@H](C)O)C(=O)N1CCC[C@H]1C(=O)N[C@@H](CO)C(=O)N[C@@H](CO)C(=O)N[C@H](C(=O)N[C@@H](CC(N)=O)C(=O)N[C@H](C(=O)NCC(=O)N[C@@H](Cc1c[nH]cn1)C(=O)N[C@@H](CC(N)=O)C(=O)N[C@H](C(=O)N[C@@H](Cc1ccc(O)cc1)C(N)=O)[C@@H](C)O)C(C)C)[C@@H](C)O
notes: Synthetic acylated analogue of human amylin
B2: N^ε1-[(4S)-4-carboxy-4-(15-carboxypentadecanoylamino)butanoyl]-[Arg17,Pro21,Pro27,His34]-h-amylin (peptide)
peptide: K([γGlu-C16 diacid])CNTATCATQRLANFLRHSSPNFGAIPSSTNVGHNTY-NH2
modifications: disulfide 2-7; N-terminus assumed
SMILES: CC[C@H](C)[C@H](NC(=O)[C@H](C)NC(=O)CNC(=O)[C@H](Cc1ccccc1)NC(=O)[C@H](CC(N)=O)NC(=O)[C@@H]1CCCN1C(=O)[C@H](CO)NC(=O)[C@H](CO)NC(=O)[C@H](Cc1c[nH]cn1)NC(=O)[C@H](CCCNC(=N)N)NC(=O)[C@H](CC(C)C)NC(=O)[C@H](Cc1ccccc1)NC(=O)[C@H](CC(N)=O)NC(=O)[C@H](C)NC(=O)[C@H](CC(C)C)NC(=O)[C@H](CCCNC(=N)N)NC(=O)[C@H](CCC(N)=O)NC(=O)[C@@H](NC(=O)[C@H](C)NC(=O)[C@@H]1CSSC[C@H](NC(=O)[C@@H](N)CCCCNC(=O)CC[C@H](NC(=O)CCCCCCCCCCCCCCC(=O)O)C(=O)O)C(=O)N[C@@H](CC(N)=O)C(=O)N[C@@H]([C@@H](C)O)C(=O)N[C@@H](C)C(=O)N[C@@H]([C@@H](C)O)C(=O)N1)[C@@H](C)O)C(=O)N1CCC[C@H]1C(=O)N[C@@H](CO)C(=O)N[C@@H](CO)C(=O)N[C@H](C(=O)N[C@@H](CC(N)=O)C(=O)N[C@H](C(=O)NCC(=O)N[C@@H](Cc1c[nH]cn1)C(=O)N[C@@H](CC(N)=O)C(=O)N[C@H](C(=O)N[C@@H](Cc1ccc(O)cc1)C(N)=O)[C@@H](C)O)C(C)C)[C@@H](C)O
notes: as for B1
B3: N^ε1-[(4S)-4-carboxy-4-(17-carboxyheptadecanoylamino)butanoyl]-[Arg17,Pro21,Pro27,His34]-h-amylin (peptide)
peptide: K([γGlu-C18 diacid])CNTATCATQRLANFLRHSSPNFGAIPSSTNVGHNTY-NH2
modifications: disulfide 2-7; N-terminus assumed
SMILES: CC[C@H](C)[C@H](NC(=O)[C@H](C)NC(=O)CNC(=O)[C@H](Cc1ccccc1)NC(=O)[C@H](CC(N)=O)NC(=O)[C@@H]1CCCN1C(=O)[C@H](CO)NC(=O)[C@H](CO)NC(=O)[C@H](Cc1c[nH]cn1)NC(=O)[C@H](CCCNC(=N)N)NC(=O)[C@H](CC(C)C)NC(=O)[C@H](Cc1ccccc1)NC(=O)[C@H](CC(N)=O)NC(=O)[C@H](C)NC(=O)[C@H](CC(C)C)NC(=O)[C@H](CCCNC(=N)N)NC(=O)[C@H](CCC(N)=O)NC(=O)[C@@H](NC(=O)[C@H](C)NC(=O)[C@@H]1CSSC[C@H](NC(=O)[C@@H](N)CCCCNC(=O)CC[C@H](NC(=O)CCCCCCCCCCCCCCCCC(=O)O)C(=O)O)C(=O)N[C@@H](CC(N)=O)C(=O)N[C@@H]([C@@H](C)O)C(=O)N[C@@H](C)C(=O)N[C@@H]([C@@H](C)O)C(=O)N1)[C@@H](C)O)C(=O)N1CCC[C@H]1C(=O)N[C@@H](CO)C(=O)N[C@@H](CO)C(=O)N[C@H](C(=O)N[C@@H](CC(N)=O)C(=O)N[C@H](C(=O)NCC(=O)N[C@@H](Cc1c[nH]cn1)C(=O)N[C@@H](CC(N)=O)C(=O)N[C@H](C(=O)N[C@@H](Cc1ccc(O)cc1)C(N)=O)[C@@H](C)O)C(C)C)[C@@H](C)O
notes: as for B1
B4: N^ε1-[(4S)-4-carboxy-4-(19-carboxynonadecanoylamino)butanoyl]-[Ala14,Arg17,Pro21,Pro27,His34]-h-amylin (peptide)
peptide: K([γGlu-C20 diacid])CNTATCATQRLAAFLRHSSPNFGAIPSSTNVGHNTY-NH2
modifications: disulfide 2-7; N-terminus assumed
SMILES: CC[C@H](C)[C@H](NC(=O)[C@H](C)NC(=O)CNC(=O)[C@H](Cc1ccccc1)NC(=O)[C@H](CC(N)=O)NC(=O)[C@@H]1CCCN1C(=O)[C@H](CO)NC(=O)[C@H](CO)NC(=O)[C@H](Cc1c[nH]cn1)NC(=O)[C@H](CCCNC(=N)N)NC(=O)[C@H](CC(C)C)NC(=O)[C@H](Cc1ccccc1)NC(=O)[C@H](C)NC(=O)[C@H](C)NC(=O)[C@H](CC(C)C)NC(=O)[C@H](CCCNC(=N)N)NC(=O)[C@H](CCC(N)=O)NC(=O)[C@@H](NC(=O)[C@H](C)NC(=O)[C@@H]1CSSC[C@H](NC(=O)[C@@H](N)CCCCNC(=O)CC[C@H](NC(=O)CCCCCCCCCCCCCCCCCCC(=O)O)C(=O)O)C(=O)N[C@@H](CC(N)=O)C(=O)N[C@@H]([C@@H](C)O)C(=O)N[C@@H](C)C(=O)N[C@@H]([C@@H](C)O)C(=O)N1)[C@@H](C)O)C(=O)N1CCC[C@H]1C(=O)N[C@@H](CO)C(=O)N[C@@H](CO)C(=O)N[C@H](C(=O)N[C@@H](CC(N)=O)C(=O)N[C@H](C(=O)NCC(=O)N[C@@H](Cc1c[nH]cn1)C(=O)N[C@@H](CC(N)=O)C(=O)N[C@H](C(=O)N[C@@H](Cc1ccc(O)cc1)C(N)=O)[C@@H](C)O)C(C)C)[C@@H](C)O
notes: Synthetic acylated analogue of human amylin; also called compound 93

Target: T1, rat amylin receptor (rat calcitonin …)
Test: SPA competition with 125I-rat amylin on membranes of BHK tk'ts 13 cells with rat calcitonin receptor + rat RAMP3 (Assay VI)

In order of falling IC50:
1. B1  2.52 nM
2. B4  1.58 nM
3. B2  1.24 nM
4. B3  1.17 nM

Target: T2, rat calcitonin receptor
Test: ratio of IC50 on rat calcitonin receptor to IC50 on rat amylin receptor (reference m40)

In order of falling “Ratio rCT/rAmylin binding” value:
1. B2  327
2. B1  280
3. B4  83.2
4. B3  40.3

Target: T2, rat calcitonin receptor
Test: SPA competition with 125I-calcitonin on membranes of BHK tk'ts 13 cells with rat calcitonin receptor (Assay VIII)

In order of rising IC50:
1. B3  47 nM
2. B4  131 nM
3. B2  404 nM
4. B1  707 nM

Target: T3, human calcitonin receptor
Test: ratio of IC50 on human calcitonin receptor to IC50 on human amylin receptor (reference m42), SPA competition
Procedure: The resulting pellet was resuspended, homogenized and centrifuged (20.000 rpm, 15 min) in a buffer containing 20 mM Na-HEPES and 0.1 mM EDTA (pH 7.4, buffer 2). The resulting pellet was resuspended in buffer 2 and protein concentration was measured (BCA protein Assay, Pierce). The homogenate was kept cold during the whole procedure. The membranes were kept at −80° C. until use. The assay was performed in a 384 well Optiplate (PerkinElmer) in a total volume of 40 ul. Membranes were mixed with SPA beads. Final concentration of membranes 35 ng/μL final and SPA beads was 0.05 mg/well. Test-compounds were dissolved in DMSO and further diluted in assay buffer (50 mM Hepes, pH 7.4, 1 mM CaCl2, 5 mM MgCl₂, 0.1% OA and 0.02% Tween20). […] The final mixture was incubated with shaking at 400 rpm for 120 min at 25° C. prior to centrifugation (1500 rpm, 10 min). Samples were analyzed on TopCounter™ (Packard). The IC₅₀ was calculated using (one site binding competition analysis) GraphPad Prism5 as a measure of receptor affinity.
Membranes were prepared in the following way; the cells were rinsed with PBS and incubated with Versene for approximately 5 min before harvesting. The cells were flushed with PBS and the cell-suspension was centrifuged for 5 min at 1000 rpm. Cells were homogenized (Ultrathurrax) in a buffer containing 20 mM Na-HEPES and 10 mM EDTA (pH 7.4) and centrifuged at 20.000 rpm for 15 min. The resulting pellet was resuspended, homogenized and centrifuged (20.000 rpm, 15 min) in a buffer containing 20 mM Na-HEPES and 0.1 mM EDTA (pH 7.4, buffer 2). The resulting pellet was resuspended in buffer 2 and protein concentration was measured (BCA protein Assay, Pierce). The homogenate was kept cold during the whole procedure. The membranes were kept at −80° C. until use. Assay was performed in a 384 well Optiplate (PerkinElmer) in a total volume of 40 ul. Membranes were mixed with SPA beads.

In order of rising “Ratio hCT/hAmylin binding” value:
1. B2  18.5
2. B1  23.5
3. B3  59.4
4. B4  101
